Results as given in patent US7241873B2, “Recombinant anti-osteopontin antibody and use thereof” (Juridical Foundation the Chemo-sero-therapeutic Research …, priority 2001, dated 2007).
No end group written: not given here. *: point of attachment. Biotin = O=C1N[C@H]2[C@H](CS[C@H]2CCCCC(=O)*)N1

Experiments:
[1] = biological target: BSA-crosslinked osteopontin peptide (BSA-CVDTYDGRGDSVVYGLRS) (Homo sapiens, UniProt P10451); test: ELISA binding to osteopontin peptide
Excerpt: Based on the concentrations of the humanized 2K1 antibody and the chimera 2K1 antibody as determined in Example 13, the binding activities of the humanized 2K1 antibody and the chimera 2K1 antibody with osteopontin peptide (CVDTYDGRGDSVVYGLRS) (SEQ ID NO: 1) were compared with reference to the ELISA of Kon et al. (Journal of Cellular […]: 420–432 (2002)).
Dilution series of the humanized 2K1 antibody and the chimera 2K1 antibody reacted on a microtiter plate with BSA-crosslinked osteopontin peptide (BSA-CVDTYDGRGDSVVYGLRS)(SEQ ID NO: 1) immobilized thereon. Then, the antibodies bound to BSA-CVDTYDGRGDSVVYGLRS (SEQ ID NO: 1) reacted with protein A-HRP, and finally with TMB (Dojindo Corporate), to measure the absorbance at a wavelength of 450 nm.
Additionally, reaction on a plate with only BSA immobilized thereon as a negative control was also measured in the same manner.
As a negative control, additionally, the binding activity of the chimera 2K1 antibody to BSA (open circle) and the binding activity of the humanized 2K1 antibody to BSA (open square) are also shown.

[2] = biological target: T1, biotinylated partial peptide GRGDSVVYGLR of human osteopontin (human); test: SPR BIACORE-2000, biotinylated peptide on sensor chip SA, antibody as analyte, global fitting 1:1 (Langmuir)
T1 construct: Captured on a BIACORE sensor chip SA (23 RU)
T1 peptide: Biotin-GRGDSVVYGLR
Method: The KD value of the chimera 2K1 antibody was assayed in the following manner. First, a partial peptide GRGDSV-VYGLR (residues 7–17 of SEQ ID NO: 1) of the human osteopontin was biotinylated with a biotinylation kit (Dojindo Corporate). A sensor chip SA was set on BIA-CORE-2000, to bind 23 RU of a ligand (Bin-GRGDSV-VYGLR)(residues 7–17 of SEQ ID NO: 1). […] The data of these sensor grams were analyzed by global fitting at 1:1 (Langmuir) binding by a BIACORE analysis software BIA Evaluation Version 3.0. FIG. 6a is a sensor gram at various concentrations of the murine 2K1 antibody. FIG. 6b is a sensor gram at various concentrations of the chimera 2K1 antibody.
As the results of the measurement, the KD value of the murine 2K1 antibody was 1.2 ×10^-10 M, while the KD value of the chimera 2K1 antibody was 9.2 ×10^-11 M. No reduction of the affinity of the chimera 2K1 antibody was observed due to the chimera preparation of the murine 2K1 antibody.

[3] = biological target: thrombin-cleaved OPN (human) (UniProt P10451); test: cell-based or functional assay
Sequence of thrombin-cleaved OPN (human) (P10451 17-168 limits assumed, form in doubt, chain 1 of 2): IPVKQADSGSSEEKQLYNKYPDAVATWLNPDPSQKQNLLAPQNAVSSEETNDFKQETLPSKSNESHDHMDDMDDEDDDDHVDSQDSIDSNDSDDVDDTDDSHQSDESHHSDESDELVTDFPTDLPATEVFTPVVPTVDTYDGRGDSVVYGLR
Sequence of thrombin-cleaved OPN (human) (P10451 169-314 limits assumed, form in doubt, chain 2 of 2): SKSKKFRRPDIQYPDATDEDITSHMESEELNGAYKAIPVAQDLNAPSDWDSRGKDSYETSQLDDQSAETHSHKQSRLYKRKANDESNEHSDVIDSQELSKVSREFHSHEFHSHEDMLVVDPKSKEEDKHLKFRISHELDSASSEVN

GST-OPN-c = biological target: T2, GST-OPN-c (human, UniProt P08515 1-218 = GST; P10451 1-287); test: Western blotting
T2 construct: Isoform c of human osteopontin; made in E. coli; also called GST fusion protein of human osteopontin-c; not shown: vector-encoded junction between GST and OPN not described
T2 sequence (P08515 1-218, tags or fused parts left off): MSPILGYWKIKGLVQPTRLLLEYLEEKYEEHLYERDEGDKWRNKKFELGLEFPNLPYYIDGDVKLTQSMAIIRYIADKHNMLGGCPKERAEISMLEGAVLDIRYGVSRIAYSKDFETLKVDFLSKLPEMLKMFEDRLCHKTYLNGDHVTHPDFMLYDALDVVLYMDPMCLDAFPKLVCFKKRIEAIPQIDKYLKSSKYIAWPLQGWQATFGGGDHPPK

CHO/OPN-a = biological target: T3, CHO/OPN-a (human, UniProt P10451 17-314, sugar chain-bound type (glycosylated)); test: Western blotting
T3 construct: mature; also called full-length OPN
T3 sequence (P10451 17-314): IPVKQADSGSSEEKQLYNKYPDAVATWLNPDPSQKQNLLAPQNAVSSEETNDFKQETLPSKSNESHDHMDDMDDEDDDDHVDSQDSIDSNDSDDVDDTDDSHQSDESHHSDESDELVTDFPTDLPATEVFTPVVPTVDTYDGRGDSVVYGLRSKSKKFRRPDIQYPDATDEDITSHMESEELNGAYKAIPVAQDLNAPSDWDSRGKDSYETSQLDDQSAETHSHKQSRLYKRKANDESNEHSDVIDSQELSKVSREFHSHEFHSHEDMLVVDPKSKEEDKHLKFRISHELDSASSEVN

bovine serum albumin = biological target: T4, bovine serum albumin (bovine, UniProt P02769 25-607); test: ELISA on a plate with BSA alone, detection with protein A-HRP and TMB, OD450
T4 construct: also called BSA
T4 sequence (P02769 25-607 limits assumed): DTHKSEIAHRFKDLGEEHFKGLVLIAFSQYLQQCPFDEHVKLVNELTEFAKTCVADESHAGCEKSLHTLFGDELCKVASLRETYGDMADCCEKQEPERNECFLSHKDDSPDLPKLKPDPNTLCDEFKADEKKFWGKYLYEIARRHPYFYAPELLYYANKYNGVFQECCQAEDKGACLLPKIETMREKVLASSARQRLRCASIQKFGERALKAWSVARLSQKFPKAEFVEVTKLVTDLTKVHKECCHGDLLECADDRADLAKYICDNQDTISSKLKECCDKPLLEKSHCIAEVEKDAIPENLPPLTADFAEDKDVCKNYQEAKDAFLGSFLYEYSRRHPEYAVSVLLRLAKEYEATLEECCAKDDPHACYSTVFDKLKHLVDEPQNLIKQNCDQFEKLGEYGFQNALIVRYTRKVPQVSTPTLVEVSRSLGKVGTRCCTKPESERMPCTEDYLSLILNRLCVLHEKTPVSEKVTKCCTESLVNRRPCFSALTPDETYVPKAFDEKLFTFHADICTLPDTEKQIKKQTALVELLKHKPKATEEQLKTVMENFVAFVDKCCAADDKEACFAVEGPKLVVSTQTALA

[4] = biological target: T5, BSA-crosslinked osteopontin peptide BSA-CVDTYDGRGDSVVYGLRS (human, also: crosslinked to BSA, linkage chemistry not given here); test: ELISA on a plate with BSA-CVDTYDGRGDSVVYGLRS, detection with protein A-HRP and TMB, OD450
T5 construct: Peptide carries an added N-terminal cysteine; immobilized on a microtiter plate as BSA conjugate; also called Peptide 1
T5 peptide: {BSA}-CVDTYDGRGDSVVYGLRS

B1: humanized 2K1 antibody: humanized antibody with CDRs of murine 2K1; VH SEQ ID NO: 28, VL SEQ ID NO: 30, human Igγ1/Igκ (antibody, V domains shown)
VH: MDWTWRVFCLLAVAPGAHSQVQLVQSGAEVKKPGSSVKVSCKASGGTFSDYEMHWVRQAPGQGLEWMGAIHPGRGGTAYNQKFKGRVTITADKSTSTAYMELSSLRSEDTAVYYCARITGYFDVWGQGTTVTVSS
VL: MGWSCIILFLVATATGVHSDVVMTQSPLSLPVTLGQPASISCRSSQSIVHSNGNTYLEWYLQKPGQSPQLLIYKVSNRFSGVPDRFSGSGSGTDFTLKISRVEAEDVGVYYCFQGSHVPLTFGQGTKLEIKR
modifications: human IgG1/kappa constant regions
antigen binding activity compared with the original murine 2K1 antibody [1]: identical to that of the original murine 2K1 antibody
binding activity to BSA-CVDTYDGRGDSVVYGLRS ([1]; ELISA, absorbance 450 nm, FIG. 13): had binding activities
binding activity to BSA (negative control plate) ([1]; ELISA, plate with only BSA immobilized): not to BSA
comparison of binding activities of both antibodies to BSA-CVDTYDGRGDSVVYGLRS ([1]; humanized versus chimera 2K1 antibody): at the same level

B2: murine monoclonal antibody 2K1 (antibody, V domains shown)
VH: QVQLQQSGAELVRPGASVKLSCKALGYTFTDYEMHWVKQTPVHGLEWIGAIHPGRGGTAYNQKFKGKATLTADKSSSTAYMELSSLTSEDSAVYYCTRITGYFDVWGAGTTVTVSS
VL: DVLMTQTPLSLPVSLGDQASISCRSSQSIVHSNGNTYLEWYLQKPGQSPKLLIYKVSNRFSGVPDRFSGSGSGTDFTLKISRVEAEDLGVYYCFQGSHVPLTFGAGTKLELKR
notes: also called murine 2K1 antibody; murine antibody 2K1
Kd [2]: 0.12 nM
Mean migrating cell counts per 1 mm^3; monocyte; thrombin-cleaved OPN 10 µg/mL, murine 2K1 antibody 0.4 µg/mL (cells per 1 mm^3) [3]: 258
Mean migrating cell counts per 1 mm^3; monocyte; thrombin-cleaved OPN 10 µg/mL, murine 2K1 antibody 2 µg/mL (cells per 1 mm^3) [3]: 257
Mean migrating cell counts per 1 mm^3; monocyte; thrombin-cleaved OPN 10 µg/mL, murine 2K1 antibody 10 µg/mL (cells per 1 mm^3) [3]: 160
Mean migrating cell counts per 1 mm^3; monocyte; thrombin-cleaved OPN 10 µg/mL, murine 2K1 antibody 50 µg/mL (cells per 1 mm^3) [3]: 75
Mean migrating cell counts per 1 mm^3; neutrophil; thrombin-cleaved OPN 10 µg/mL, murine 2K1 antibody 0.4 µg/mL (cells per 1 mm^3) [3]: 567
Mean migrating cell counts per 1 mm^3; neutrophil; thrombin-cleaved OPN 10 µg/mL, murine 2K1 antibody 2 µg/mL (cells per 1 mm^3) [3]: 550
Mean migrating cell counts per 1 mm^3; neutrophil; thrombin-cleaved OPN 10 µg/mL, murine 2K1 antibody 10 µg/mL (cells per 1 mm^3) [3]: 450
Mean migrating cell counts per 1 mm^3; neutrophil; thrombin-cleaved OPN 10 µg/mL, murine 2K1 antibody 50 µg/mL (cells per 1 mm^3) [3]: 427
binding result (GST-OPN-c): binds
binding result (CHO/OPN-a): binds

B3: mouse-human chimera 2K1 antibody (antibody, V domains shown)
VH: QVQLQQSGAELVRPGASVKLSCKALGYTFTDYEMHWVKQTPVHGLEWIGAIHPGRGGTAYNQKFKGKATLTADKSSSTAYMELSSLTSEDSAVYYCTRITGYFDVWGAGTTVTVSS
VL: DVLMTQTPLSLPVSLGDQASISCRSSQSIVHSNGNTYLEWYLQKPGQSPKLLIYKVSNRFSGVPDRFSGSGSGTDFTLKISRVEAEDLGVYYCFQGSHVPLTFGAGTKLELKR
notes: Expressed in CHO-DG44; also called C2K1 antibody; 2K1 chimera antibody
binding result (bovine serum albumin): no binding (tested: 50 ng/ml)
binding result [4]: binds
Kd [2]: 0.092 nM

B4: humanized 2K1 antibody (antibody, V domains shown)
VH: QVQLVQSGAEVKKPGSSVKVSCKASGGTFSDYEMHWVRQAPGQGLEWMGAIHPGRGGTAYNQKFKGRVTITADKSTSTAYMELSSLRSEDTAVYYCARITGYFDVWGQGTTVTVSS
VL: DVVMTQSPLSLPVTLGQPASISCRSSQSIVHSNGNTYLEWYLQKPGQSPQLLIYKVSNRFSGVPDRFSGSGSGTDFTLKISRVEAEDVGVYYCFQGSHVPLTFGQGTKLEIKR
notes: Human Igγ1 / Igκ constant regions (vectors AG-γ1 and AG-κ); Tested as CHO-DG44 culture supernatant; also called R2K1 antibody
binding result (bovine serum albumin): no binding (tested: 50 ng/ml)
binding result [4]: binds
